Assays:
[1] = molecular target: recombinant chicken leptin binding domain (chLBD) (chicken); test: SPR (Biacore 3000), leptin amine-coupled to CM5 chip, soluble chLBD as analyte, 25 C, 1:1 Langmuir fit, mean of 2 experiments
[2] = molecular target: long form of human leptin receptor (human) (UniProt P48357); test: radioreceptor assay, homogenate from 1.75x10^6 BAF/3 cells with human leptin receptor per tube
Target sequence in this assay (P48357 22-1165 limits assumed, form in doubt): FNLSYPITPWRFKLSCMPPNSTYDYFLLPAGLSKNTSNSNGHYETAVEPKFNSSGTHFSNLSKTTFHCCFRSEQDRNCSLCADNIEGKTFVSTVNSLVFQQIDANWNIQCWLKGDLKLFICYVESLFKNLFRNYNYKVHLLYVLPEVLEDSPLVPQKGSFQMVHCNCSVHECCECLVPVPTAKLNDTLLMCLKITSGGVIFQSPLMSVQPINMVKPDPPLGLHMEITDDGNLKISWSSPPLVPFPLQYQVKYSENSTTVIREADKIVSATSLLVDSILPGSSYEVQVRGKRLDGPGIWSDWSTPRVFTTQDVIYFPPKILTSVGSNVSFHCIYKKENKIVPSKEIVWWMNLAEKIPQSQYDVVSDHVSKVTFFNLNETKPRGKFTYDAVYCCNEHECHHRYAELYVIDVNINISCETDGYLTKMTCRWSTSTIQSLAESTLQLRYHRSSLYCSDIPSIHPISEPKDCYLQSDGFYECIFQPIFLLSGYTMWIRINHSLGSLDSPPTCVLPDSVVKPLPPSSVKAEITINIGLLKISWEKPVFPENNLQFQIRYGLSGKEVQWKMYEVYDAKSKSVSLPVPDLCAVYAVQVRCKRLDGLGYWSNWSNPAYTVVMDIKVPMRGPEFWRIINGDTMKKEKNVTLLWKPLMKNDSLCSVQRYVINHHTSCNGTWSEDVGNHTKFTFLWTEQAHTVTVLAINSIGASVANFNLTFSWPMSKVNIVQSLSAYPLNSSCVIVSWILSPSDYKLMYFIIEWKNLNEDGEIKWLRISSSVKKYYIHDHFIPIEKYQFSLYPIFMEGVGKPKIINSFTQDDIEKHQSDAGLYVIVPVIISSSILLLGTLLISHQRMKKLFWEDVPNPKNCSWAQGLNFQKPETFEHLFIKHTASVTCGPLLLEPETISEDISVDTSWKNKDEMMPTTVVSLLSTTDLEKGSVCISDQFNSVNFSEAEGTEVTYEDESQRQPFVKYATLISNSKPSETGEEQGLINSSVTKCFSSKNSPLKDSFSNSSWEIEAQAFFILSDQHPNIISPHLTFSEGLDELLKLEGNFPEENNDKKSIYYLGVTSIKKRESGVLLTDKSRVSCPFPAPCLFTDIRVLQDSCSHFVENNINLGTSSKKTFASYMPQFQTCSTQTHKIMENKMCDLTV

[3] = molecular target: long form of human leptin receptor (human) (UniProt P48357); test: radioreceptor competition assay against iodinated leptin, homogenate of BAF/3 cells with long form of human leptin receptor, average of two experiments
Target sequence in this assay (P48357 22-1165 limits assumed, form in doubt): as above

[4] = molecular target: long form of human leptin receptor (human) (UniProt P48357); test: cell-based or functional assay
[5] = molecular target: recombinant chicken leptin binding domain (chLBD) (chicken); test: affinity for chLBD (method not given; compared with the SPR value of WT human leptin)

Kd [1] [nM] | koff [1] [s⁻¹] | kon [1] [M⁻¹ s⁻¹] | specific binding [2] [%] | IC50 [3] [nM] | EC50 in Baf/3 bioassay (proliferation of BAF/3 cells transfected with the long form of human leptin receptor, MTT) [4] [nM] | Kd [5] [nM] | IC50 for inhibition in the Baf/3 bioassay [4] [nM] | IC50 for inhibition in the Baf/3 bioassay, fold against L39A/D40A/F41A or L39A/D40A/F41A/I42A [4] [fold] | Substance
28.8 | 0.0043 | 149000 | 6 to 7 | 5.33 | 0.022 |  |  |  | wild-type (WT) human leptin, recombinant (from UniProt P41159 22-167) (ligand)
22.8 | 0.0037 | 162000 |  | 1.47 | 0.037 |  |  |  | wild-type (WT) ovine leptin, recombinant (from UniProt Q28603 1-146) (ligand)
 |  |  |  |  |  | 29.5 | 165 | 150 | human leptin S120A/T121A mutant (from UniProt P41159 22-167) (ligand)
 |  |  |  |  |  | 26.9 | 14.3 |  | human leptin L39A/D40A/F41A/I42A/S120A/T121A mutant (from UniProt P41159 22-167) (ligand)

From patent US20060154859A1
